For one sequence, activity results are on record in patent publication US20190167815.

One data set deals with SBS#75114 (synthetic). In words: cell_activity. The following applies: KRAB fusion mRNA, C9 line, isoform-specific RT-qPCR. (In general: Quantitative PCR measures a nucleic acid by following its amplification.)
The subject of another data set is SBS#75115 (synthetic). In words: cell_activity. The following applies: KRAB fusion mRNA, C9 line, isoform-specific RT-qPCR; microarray: only C9orf72 repressed.

Turning to “CACGCCCCGGCCCCGGCCCCGGCCCCTA (double strand) [C9orf72 reverse site, frame i]”, the activity in the data set with SBS#75114 (synthetic) and in the data set with SBS#75115 (synthetic) was more than 70 % repression throughout.
